Data as given in the nanobody polyreactivity screen of Harvey et al. (2022).

Experiment: yeast display, Sf9 membrane polyspecificity reagent, FACS + sequencing; frameworks hold sequencing errors
Outline: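 Sorting gates, low and high (top ~1%), were placed on anti-HA fluorescence to track expression and on streptavidin fluorescence to track reagent binding. A clone's polyreactivity label is taken from the gate it came out of. The reagent was 10% biotinylated, detergent-solubilized Sf9 membrane, applied for 1 hour at 4 °C to galactose-induced yeast display cells.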

For “QVQLVESGGGLVQAGGSLRLSCAASGSTFNANTMGWYRQAPGKEREFVAAISWTGASTYYADSVKGRFTISRDNAKNTVYLHMNSLKPEDTAVDYCNADYTVADGPYRDGYDYWGQGTQVTVSS”, the “polyreactivity (PSR sort gate)” value was “low polyreactivity”.
For “QVQLVESGGVLVQAGGSLRLSCAASGRIFPSYDMGWYRQAPAKERELVDTISTRGDSTYYADSVKGRFTISRDNAKNTVYLQMNSQKPEDTAVYYCAAERPFWEYDYWGQGTQVTVSS”, the “polyreactivity (PSR sort gate)” value was “low polyreactivity”.
With “QVQLVESGGGLVQAGGSLRLSCAASGSIFGYNAMGWYRQAPGKERELVAAISLTTGSTYYADSVKGRFTISRDNAKNTVYLQMNCLNPEDTAVYYCAAVDADYYYWGQGTQVTVSS” the “polyreactivity (PSR sort gate)” value was “high polyreactivity”.
With “QVQLVESGGGLVQAGGSLRLSCAASGFTFDKNVMGWYRQAPGKERELVAAISVRGGTTYYADSVKGRFTISRDNAKNTVYLQMNSLKPEDTAVYYCAARAYGPPARYDSWGQGTQVTVSS” the “polyreactivity (PSR sort gate)” value was “low polyreactivity”.
With “QVQLVESGGGLVQSGGSLRLSCAASGSTFTSNTMGCYRQAPGKESEIVAGITWRGGSTYYADSVKGRFTISRDNAKNTVYLQMNSLKPEDTAVYYCAAYGYSKDVWNFYYWGQGTQVTVSS” the “polyreactivity (PSR sort gate)” value was “low polyreactivity”.
With “QVQLVESGGGLVQAGGSLRLSCAASGSIFYINAMGWYRQAPGKEREFVARISWRSGSTSYADSVKGRFTISRDNAKNTVYLQMNSLKPEDTAVYYCNAGDFANDNGGRRDQFTWEDEYWGQGTQVTVSS” the “polyreactivity (PSR sort gate)” value was “low polyreactivity”.
For “QVQLVESGGGLVQAGGSLRLSCAASGIIFGGYTMGWSRQAPGKERELVAAISWSGVGTYYADSVKGRFTISRDNAKNTVYLQMNSLKPEDTAVYYCAAWAYYSDDDEYWGQGTQVTVSS”, the “polyreactivity (PSR sort gate)” value was “high polyreactivity”.
In the case of “KFQLVESGGGLVQAVGSLRLSCDASGRTFYYYDMGWYRQAPGKERELVAAITWDGGRTYYADSVMGRFTISRDNAKNTVYLQMNSLKPEDTAVYYCNADDFFEILGECTLMDYWGQGTQVTVSS”, the “polyreactivity (PSR sort gate)” value is reported as “low polyreactivity”.
With “QVQLQESGGGLVQAGGSLRLSSAASGPISRRSTMGWYRQAPGKERELVTAITRGTNTNYADSVKGRFTISRDNAMNTEYLQMNSLKPEDTAVYYCAAYGVLKPSRGDAVFHRYWGQGTQVTVSS” the “polyreactivity (PSR sort gate)” value was “low polyreactivity”.
With “QVQLVESGGGLVQAGGSLRLSCAASGSIFYWYDMGWYRQAPGKERELVAAITNDGDSTYYADSVKGRFTISRDNAKNTVYLQMNSLKPEDTAVYYCAADVLFYYEYGSWGQGTQVTVSS” the “polyreactivity (PSR sort gate)” value was “low polyreactivity”.
In the case of “QVQLVESGGGLVQAGGSLRLSCAASGSTFSVYGMGWYRQGPGKERELVAAISGYGSRRYYADSLKGRFTISRDNAKNTVYLQMNSLKPEDTAVYYCAAVRRLLQGRTMYYWGQGTQVTVSS”, the “polyreactivity (PSR sort gate)” value is reported as “high polyreactivity”.
For “QVQLVESGGGLVQAGGSLRLSCAPSGSIFRGYAMGWYRQAPGKERELVAAISSGGSTYYADSVKGRFTISRDNAKNTVDLQMNSLKPEDTAVYYCATSTYAYRRISYYSWGQCTQVTVSS”, the “polyreactivity (PSR sort gate)” value was “high polyreactivity”.
For “QVQLGESVGGLVQAGGSLRLSCAASGRIFEPYAMGWYRQAPGKESELVAAINSGGSTNYADSVKGRFTISRDNAKNTVYLQMNSLKPEDTAVYYCNKGQNIRQSPGDYWGLGTQVTVSS”, the “polyreactivity (PSR sort gate)” value was “low polyreactivity”.
In the case of “QVQLVESGGGLVQAGGSLRLSCAATGFTFIPYAMGWYRQAPGKERELVAGITIGGRTNNADSVKGRFTISRDNAKNTVYLQMNSLKPEDTAVYYCNAGVYLYVTSKYWYYYWGQGTQVTVSS”, the “polyreactivity (PSR sort gate)” value is reported as “high polyreactivity”.
With “QVQLVESGGGLVQAGGSLRLSCAASGSTFKYYAMGWYRQAPGKERELVAAISASGGTTYYADSVKGRFTISRDNAKNTVYVQMNSLKPEDTAVYDCAARYLTTFSRTDMEYWGQGTQVTVSS” the “polyreactivity (PSR sort gate)” value was “low polyreactivity”.
In the case of “QVQLVESGGGLVQAGGSLRLSCAASGSTFYSNVMGWYRQAPGKERELLAAISQSGGRTFYADSVKGRFTISRDNAKITVYLQMNSLKPEDSAVYYSNASSGNRYGPRYDYWGQGTQVTVSS”, the “polyreactivity (PSR sort gate)” value is reported as “high polyreactivity”.
With “QVQLVESGGGLVQAGGRLRLSCAASGITFYHYAMGWYRQAPGKERELVAAITRSGGRTYYAVSVKGRFTISRDTANNTVYVEMYSLKPEVTAVYYSAARWQKTAGRYYYWGQGTQVTGSS” the “polyreactivity (PSR sort gate)” value was “high polyreactivity”.
In the case of “QVQLVESGGGLVQAGGSLRLTCAASGSIFGNNAMGWYRQATGKERELVAVITDGGNTYYADSVKGRFTISRDNAKNTVYLQMNSLKPEDTAVYYCNAEWWGDSVYWGQGTQVTVSS”, the “polyreactivity (PSR sort gate)” value is reported as “low polyreactivity”.
For “QVQLVESGGGLVQAGGSLRLSCAAYGRISAMGWYRQAPGKERELVAAISRGGSTYYADSVKGRFTISRDNAKNTVYLQMNSLKPEDTAVYYCARRYASTGYDYWGQGTQVTVSS”, the “polyreactivity (PSR sort gate)” value was “high polyreactivity”.
In the case of “QVQLVESGGGLVQAGGSLRLSCAASGFTFSWYVMGWYRQAPGKERELVAAISSSGGSTYYADSVKGRFTISRDNAKNTVYLQMKSLKPEDTAVYYCSAGRPYGDGDYWGQGTQVTVSS”, the “polyreactivity (PSR sort gate)” value is reported as “high polyreactivity”.
With “QVQLVESGVGLVQAGGSLRLSCAASGSISDVYAMGVYRQAPGKERDLVAAITSGASTYYADSVKGRFTISLDNAKNTVYLQINSLKPEDTAVYYCSAGYSDWYYAAYNSWGQGTQVTVST” the “polyreactivity (PSR sort gate)” value was “low polyreactivity”.
For “QVQLVESGGGLVQAGGSLRLSCAASGYIFRSYAMGWYRQAPGKERELVAAITRSGGSTYYADSVKGRFTISRDNAKNTVYLQMNSPKPEDTAVYYCAVLPRGSNGMDYWGQGTQVTVSS”, the “polyreactivity (PSR sort gate)” value was “low polyreactivity”.
In the case of “QVQLVESGGGLVQAGGSLRLSCAASGITFRKYAMGWYRQAPGKERELVAGIRRGGSTYYADSVKGRFTISRDNAKNTVYLQMNSLKPEDTAVYYCATRARYKRIRYDYWGQGTQVTVSS”, the “polyreactivity (PSR sort gate)” value is reported as “high polyreactivity”.
For “QVQLVESGGGVVQAGGSLRLSCSASGRTLDKNVMGWYRQAPGKERELVAAINTGGRTYYADSVKGRFTISRDNAKNTVYLQMNSLKPEDTAVYYCAKEGHVNPRPTVGGDYWGQGTQVTVSS”, the “polyreactivity (PSR sort gate)” value was “low polyreactivity”.
In the case of “QVQLVESGGGLVQAGGSLRLSCAASGSTFTSYTMGWYRQAPGKERELVARITRGGGSTYYADSVKGRFTISRDNAKNTVYLQMNSLKPEDTAVYYCNAEGYLLPVGNTMDYWGQGTQVTVSS”, the “polyreactivity (PSR sort gate)” value is reported as “low polyreactivity”.
In the case of “QVHLVETGGGLVQEGGSLRLSCAASGSIFYYNAMGWYRQATGKETELVAAITSSGGSTYADSVKGRFTISRDNAKNTVYLQMNSLKPEDTAVYYCATVAHGLWSGSGYIYAYDYWGQGTQVTVSS”, the “polyreactivity (PSR sort gate)” value is reported as “low polyreactivity”.
In the case of “QVQLVESGGGLVQAGGSLRLSCAASGSTFYRYAMGWYRQAPGKERELVATITNSGGSTYYADSVKGRFTISRDNAKYTVYLQMNSLKPEDTAVYYCARVRSRNTGYYYWGQGTQVTVSS”, the “polyreactivity (PSR sort gate)” value is reported as “high polyreactivity”.
In the case of “QVQLVESGGGLVQAGGILRLSCAASGSIFQRYVMGWYRQAPGKAREFVAGITRSGGSTYYADSVKGRFTISRDNAKNTVYLPMNSQKPEDTAVYNCAAALVRGTYKYDYWGQGTQVTFSS”, the “polyreactivity (PSR sort gate)” value is reported as “high polyreactivity”.
For “QVQLVESGGGLVQVGGSLRLSCDASGITLSYYAMGWYRQAPGKVRELVASITVSRTSTYYADSVKRRFTISRDNAKNTVYLQMNSLKPEDTAVYYCAAYAFQYRFSGYGYWGQGTQVTVSS”, the “polyreactivity (PSR sort gate)” value was “low polyreactivity”.
In the case of “HVQLVESAGGLVPAGGSLRLSCAASGFIVWWYPMGWYRQAPGKERELVASITRGGRTNYADSVKGRFTISRDNAKNTVYLHMNSLKPEDTAVYYCAADVLLSRSNTPQRPSRLYYWGQVTQVTVSS”, the “polyreactivity (PSR sort gate)” value is reported as “high polyreactivity”.
For “QVQLVESGGGLVQAGGSLRLSCAASGSIFAVYAMGWYRQAPGKERELVAVITRSGGSTYYADSVKGRFTISRDNAKNTVYLQMNTLKPEDTADYYCAARTGYGYTRYEYWGQGTQVTVSS”, the “polyreactivity (PSR sort gate)” value was “high polyreactivity”.
In the case of “QVQLVESGGGIVQAGGSLRLTCAASGRIFAWYAMGWYRQAPWKERELVASITWGGGRTYYADSVKGRFTISRDNAKNTVYLQMNCLKPEVTAVYYCAAYRYKEEAYLGVAQERDYWGQGTLVTVSS”, the “polyreactivity (PSR sort gate)” value is reported as “low polyreactivity”.
In the case of “QVQLVESGGGLVQAGGSLRLSCAASGFTFIYYAMGRYRQAPRKERELVAAISSGGSTYYADSVKGRFTISRDNAKNTVYLQMNSLKPEDTAVYYCAAGYWWPVQYYSRYNYWGQGTQVTVSS”, the “polyreactivity (PSR sort gate)” value is reported as “high polyreactivity”.
For “QVQLVESGGGLVQAGGSLRLSCSASGSIFGYYGMGLYRQAPGKERELVATISWSGDSTNYADSVKGRFTISRDNAKNTVYLQMNSLKPEDTAVYYCAAEWHAGWGGWLRYRHYEYWGQRTQVTVSS”, the “polyreactivity (PSR sort gate)” value was “low polyreactivity”.
In the case of “QVQLVESGGGLVQAGCSLRLSCAASGRIFGTNDMGWYRQAPGKERELVAAINGSDSSTYYADSVKGRFTISRDNAKNTVYFQMNSLKPEDTAVYYCNADWSGAPERSTDGYDYWGQGTQVTVSS”, the “polyreactivity (PSR sort gate)” value is reported as “low polyreactivity”.
In the case of “QVQLVESGGGLVQAGGSLRLSCAASGITFPINAMGWYRQAPGKEREFVATISFSGASTYYADSVKGRFTISRDNAKNTVYLQMNSLKPEDTAVYYCAADLSLSTGGRAFPTYGYWGQGTQVTVSS”, the “polyreactivity (PSR sort gate)” value is reported as “high polyreactivity”.
With “QVQLVESGGGLVQAGGSLRLSCAASGFIFTDNAMGWYRQAPGKEREFVAAITYSGGSTYYADSVKGRFTISRDNAKNTVYLQMNSLKPEDTAVYYCNKDVFPAPGGVTAYEYEYWGQGTQVTVSS” the “polyreactivity (PSR sort gate)” value was “low polyreactivity”.
In the case of “QVKLVESGGGLVQAGGSLRLSSAASGSTFEYNAMGWYRQAPGKERELVASSTNYADSVKGRFTISRDNAKNTVYLQMTSRKPEDTAVYYCAREQGVNRNHDYWGQGTQVTVSS”, the “polyreactivity (PSR sort gate)” value is reported as “low polyreactivity”.
For “QVQLVESGGGLVQAGGSLRLSCAASGSTFAQNAMGWYRQAPGKEREFVAAITGTVGSTYYADSVKGRFTISRDNAKNTVYLQMNSLKPEDTAVYYCNTRGFNGRVYPYDYWGQGTQVTVSS”, the “polyreactivity (PSR sort gate)” value was “low polyreactivity”.
For “QVQLVESGGGFVQAGGSLRLSCAASGSIFYTYVMGWYRQAPGKERELVAAITWSGGSTYYADSVKGRFTISRDNAKNTVYLQMNSLKPEDTAVYYCAAVRGYRSSKYDYWGQGTQVTVSS”, the “polyreactivity (PSR sort gate)” value was “high polyreactivity”.
With “QVQLVESGGGLVQAGGSLRLSCAASGRIFGRNAMGWYRQAPGKERELVAAISRRSVSTYYADSVKGRFTISRDIAKNTVYLQMNSLKPEETAVYYCAARKSLTTPYGYWGQGTQVTVSS” the “polyreactivity (PSR sort gate)” value was “high polyreactivity”.
In the case of “QVQLVESGGGLVQAGGSLRLSCAASGIIFTWYAMGWYRQAPGKERELVAAISGSGDITYYADSVKGRFTISRDNAKNTVFLQMNSLKPEDTAVYYCAADPWTYWEDYDYWGQGTQVTVSS”, the “polyreactivity (PSR sort gate)” value is reported as “low polyreactivity”.
For “QVQLVESGGGLVQAGGSLRLSCAATGSTFDPNVMGWYRQAPGKEREFVAAISSRSGSTSYADSVKGRFTISRDNAKNTVYLQMNCLKPEVTAVYYCAARVYGLPLRMYSWGQGTQVTLSS”, the “polyreactivity (PSR sort gate)” value was “high polyreactivity”.
